For data set [1] the following is noted: rabbits, arterial venous shunt; cited from earlier work.
The conditions of data set [2]: in vitro, cited from earlier work.
The next data set concerns the target T1, fibrin (Homo sapiens, UniProt P02671+P02675+P02679).
T1 sequence (P02671 20-644 isoform P02671-2 limits assumed): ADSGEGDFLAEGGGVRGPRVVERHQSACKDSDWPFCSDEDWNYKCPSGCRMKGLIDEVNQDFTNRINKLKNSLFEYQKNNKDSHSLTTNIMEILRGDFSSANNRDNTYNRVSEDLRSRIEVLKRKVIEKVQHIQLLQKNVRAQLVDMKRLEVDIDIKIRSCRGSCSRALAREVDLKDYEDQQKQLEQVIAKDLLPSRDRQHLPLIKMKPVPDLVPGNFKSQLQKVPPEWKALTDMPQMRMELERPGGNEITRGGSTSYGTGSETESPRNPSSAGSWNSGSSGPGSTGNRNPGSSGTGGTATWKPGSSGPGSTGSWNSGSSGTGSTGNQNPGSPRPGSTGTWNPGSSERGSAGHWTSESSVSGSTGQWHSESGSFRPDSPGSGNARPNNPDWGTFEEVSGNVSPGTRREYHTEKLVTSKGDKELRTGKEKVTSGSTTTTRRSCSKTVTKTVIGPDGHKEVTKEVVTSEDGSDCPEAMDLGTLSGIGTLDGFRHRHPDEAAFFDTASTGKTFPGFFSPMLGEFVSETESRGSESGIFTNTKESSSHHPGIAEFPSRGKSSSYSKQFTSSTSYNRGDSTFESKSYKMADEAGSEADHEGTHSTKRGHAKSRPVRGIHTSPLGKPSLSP
T1 sequence (P02675 45-491 limits assumed): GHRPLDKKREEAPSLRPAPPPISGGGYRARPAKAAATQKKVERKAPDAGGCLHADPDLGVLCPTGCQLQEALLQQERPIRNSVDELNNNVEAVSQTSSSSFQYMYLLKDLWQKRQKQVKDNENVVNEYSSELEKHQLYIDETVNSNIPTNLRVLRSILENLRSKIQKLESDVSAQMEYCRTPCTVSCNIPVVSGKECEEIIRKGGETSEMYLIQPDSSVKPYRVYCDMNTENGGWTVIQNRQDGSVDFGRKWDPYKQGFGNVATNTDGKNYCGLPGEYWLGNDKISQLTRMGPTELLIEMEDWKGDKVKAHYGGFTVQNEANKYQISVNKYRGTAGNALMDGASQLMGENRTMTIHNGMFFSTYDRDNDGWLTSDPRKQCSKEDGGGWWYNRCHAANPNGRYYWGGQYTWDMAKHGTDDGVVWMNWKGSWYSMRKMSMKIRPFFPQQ
T1 sequence (P02679 27-437 isoform P02679-2 limits assumed): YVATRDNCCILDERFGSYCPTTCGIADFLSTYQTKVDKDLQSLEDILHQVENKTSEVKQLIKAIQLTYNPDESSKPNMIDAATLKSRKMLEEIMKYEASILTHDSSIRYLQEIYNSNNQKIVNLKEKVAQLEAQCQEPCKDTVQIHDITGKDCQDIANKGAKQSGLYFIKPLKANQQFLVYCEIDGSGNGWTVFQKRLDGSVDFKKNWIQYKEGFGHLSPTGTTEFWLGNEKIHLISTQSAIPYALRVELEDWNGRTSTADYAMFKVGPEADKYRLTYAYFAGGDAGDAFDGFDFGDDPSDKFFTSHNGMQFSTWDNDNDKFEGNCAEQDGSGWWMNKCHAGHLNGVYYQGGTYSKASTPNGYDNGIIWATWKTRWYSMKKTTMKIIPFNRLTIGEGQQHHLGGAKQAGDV
Particulars: greater than tPA; cited from earlier work.

A further data set concerns isolated rat aorta rings. Nature of the data set: PE-induced contraction of isolated rat aorta rings. It counts as cell-based. The protocol: FIG. 1A is a diagram describing the results of experiments on the effect of tPA on PE-induced contraction of isolated rat aorta rings. Contraction of aortic rings was induced by increasing the concentrations of phenylephrine (PE), in the absence of tPA (full triangles) or in the presence of 1 nM (filled squares) or 20 nM tPA (empty squares).
FIG. 1B describes the results of experiments in which the contraction of aortic rings was induced in the absence of TNK-tPA (filled triangles), in the presence of 1 nM tPA (filled squares) or 20 nM tPA (empty squares).
FIG. 4 is a graph describing the effect of tPA on phenylepbrine-induced contraction of isolated rat aorta rings in vitro. The contraction of the aorta rings was induced by varying concentrations of phenylephrine in the absence of tPA (filled triangles), in the presence of 1 nM of TA (filled squares) or in the presence of 10 nM tPA (empty squares). The experiments were performed according to procedures described earlier by Haj-Yehia A et al., FASEB J, 2000, 14:1411–1422.
The effect of TNK-tPA on PE-induced contraction was compared with the effect of tPA, in the isolated aorta rings. […]

Data set [3] concerns the target plasminogen activator inhibitor-1 (PAI-1) (Homo sapiens, UniProt P05121). As to conditions: higher than tPA; cited from earlier work.
The conditions of data set [4]: cited from earlier work.

Consider 1 molecule from patent US7271143B1, “Peptides for regulation of urokinase (uPA) and tissue type (tPA) plasminogen activator and method of optimizing therapeutic efficacy” (Thrombotech Ltd., priority 2001, dated 2007).

Where two headings read alike, the source gives them in different places.

Chain of plasminogen activator inhibitor-1 (PAI-1) (P05121 24-402, species assumed): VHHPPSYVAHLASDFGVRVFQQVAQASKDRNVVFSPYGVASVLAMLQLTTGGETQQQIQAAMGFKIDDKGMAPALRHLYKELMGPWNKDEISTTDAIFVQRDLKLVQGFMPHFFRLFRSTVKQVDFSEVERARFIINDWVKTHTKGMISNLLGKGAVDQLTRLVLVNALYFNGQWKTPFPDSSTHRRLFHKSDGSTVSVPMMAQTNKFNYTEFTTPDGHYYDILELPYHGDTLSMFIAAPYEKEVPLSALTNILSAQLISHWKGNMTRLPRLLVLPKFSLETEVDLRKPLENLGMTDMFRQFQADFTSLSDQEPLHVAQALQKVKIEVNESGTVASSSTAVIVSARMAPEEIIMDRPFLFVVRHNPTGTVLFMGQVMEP

B1: TNK-tPA: bioengineered variant of tissue-type plasminogen activator with tetra-alanine substitution in the protease domain (protein)
chain: SYQVICRDEKTQMIYQQHQSWLRPVLRSNRVEYCWCNSGRAQCHSVPVKSCSEPRCFNGGTCQQALYFSDFVCQCPEGFAGKCCEIDTRATCYEDQGISYRGTWSTAESGAECTNWNSSALAQKPYSGRRPDAIRLGLGNHNYCRNPDRDSKPWCYVFKAGKYSSEFCSTPACSEGNSDCYFGNGSAYRGTHSLTESGASCLPWNSMILIGKVYTAQNPSAQALGLGKHNYCRNPDGDAKPWCHVLKNRRLTWEYCDVPSCSTCGLRQYSQPQFRIKGGLFADIASHPWQAAIFAAAAASPGERFLCGGILISSCWILSAAHCFQERFPPHHLTVILGRTYRVVPGEEEQKFEVEKYIVHKEFDDDTYDNDIALLQLKSDSSRCAQESSVVRTVCLPPADLQLPDWTECELSGYGKHEALSPFYSERLKEAHVRLYPSSRCTSQHLLNRTVTDNMLCAGDTRSGGPQANLHDACQGDSGGPLVCLNDGRMTLVGIISWGLGCGQKDVPGVYTKVTNYLDWIRDNMRP
B1: the “time required for 50% lysis relative to rtPA” value in data set [1] is recorded as “one third”. Further, the “potency relative to tPA” value is given as 13 fold in data set [2] (platelet-enriched clots) and 8 fold in data set [2] (whole blood clots). The relative fibrin specificity with fibrin was 14 fold. The “effect on PE-induced vasoconstriction” value with isolated rat aorta rings (1 nM) is “stimulated”; with isolated rat aorta rings (20 nM), “increased its stimulatory effect”. The “resistance to PAI-1 relative to tPA” value in data set [3] was 80 fold. For the same molecule, the “efficacy compared with rtPA” value in data set [4] (comparative clinical trials) is given as “equivalent efficacy”. For the same molecule, in data set [4] (in vivo), the non-cerebral bleeding episodes was 4.66%. In data set [4] (in vivo), the “rate of intracranial hemorrhage compared with rtPA” value is recorded as “similar”.
